Laboratory results reported in the supplement of paper PMC10567573.

B1: ETS1 (parent)
chain: YVRDRADLNKDKPVIPAAALAGYT
B2: CLCN6 (parent)
chain: MAGCRGSLCCCCRWCCCCGERETR

Variants of: B1
Experiment: protein stability index of a GFP-peptide fusion (GPS, HEK-293T) (PSI 1-6); higher = more stable
Settings: c terminus: a fixed tail appended
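Note: lentivirally expressed fusions sorted by FACS into six bins by GFP to DsRed ratio, PSI derived from sequencing read proportions per bin multiplied by bin number.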

Row | Variant | protein stability index
1 | YVRDRADLNKDKPVIPAAALAGST | 1.52
2 | YVRDRADLNKDKPVIPAAALAGWT | 2.5
3 | YVRDRADLNKDKPVIPAAALAGAT | 2.15
4 | YVRDRADLNKDKPVIPAAALAGCT | 2.51
5 | YVRDRADLNKDKPVIPAAALAGDT | 1.91
6 | YVRDRADLNKDKPVIPAAALAGQT | 1.86
7 | YVRDRADLNKDKPVIPAAALAGMT | 1.89
8 | YVRDRADLNKDKPVIPAAALAGNT | 2.34
9 | YVRDRADLNKDKPVIPAAALAGFT | 2.21
10 | YVRDRADLNKDKPVIPAAALAGKT | 1.46
11 | YVRDRADLNKDKPVIPAAALAGLT | 2.58
12 | YVRDRADLNKDKPVIPAAALAGIT | 2.53
13 | YVRDRADLNKDKPVIPAAALAGPT | 1.47
14 | YVRDRADLNKDKPVIPAAALAGGT | 1.73
15 | YVRDRADLNKDKPVIPAAALAGVT | 2.13
16 | YVRDRADLNKDKPVIPAAALAGHT | 2.18
17 | YVRDRADLNKDKPVIPAAALAGRT | 1.89
18 | YVRDRADLNKDKPVIPAAALAGTT | 2.26
19 | YVRDRADLNKDKPVIPAAALAGET | 2.3
20 | YVRDRADLNKDKPVIPAAALAGYV | 1.74
21 | YVRDRADLNKDKPVIPAAALAGYL | 2.7
22 | YVRDRADLNKDKPVIPAAALAGYP | 2.77
23 | YVRDRADLNKDKPVIPAAALAGYC | 2.47
24 | YVRDRADLNKDKPVIPAAALAGYK | 2.81
25 | YVRDRADLNKDKPVIPAAALAGYD | 1.45
26 | YVRDRADLNKDKPVIPAAALAGYI | 2.37

Row | Variant | protein stability index
27 | YVRDRADLNKDKPVIPAAALAGYS | 1.98
28 | YVRDRADLNKDKPVIPAAALAGYW | 4.5
29 | YVRDRADLNKDKPVIPAAALAGYR | 2.1
30 | YVRDRADLNKDKPVIPAAALAGYE | 2.08
31 | YVRDRADLNKDKPVIPAAALAGYH | 3.26
32 | YVRDRADLNKDKPVIPAAALAGYG | 1.69
33 | YVRDRADLNKDKPVIPAAALAGYA | 2.37
34 | YVRDRADLNKDKPVIPAAALAGYM | 2.67
35 | YVRDRADLNKDKPVIPAAALAGYY | 2.11
36 | YVRDRADLNKDKPVIPAAALAGYQ | 2.69
37 | YVRDRADLNKDKPVIPAAALAGYF | 1.84
38 | YVRDRADLNKDKPVIPAAALASYT | 1.66
39 | YVRDRADLNKDKPVIPAAALAYYT | 1.69
40 | YVRDRADLNKDKPVIPAAALAVYT | 2.74
41 | YVRDRADLNKDKPVIPAAALAPYT | 2.01
42 | YVRDRADLNKDKPVIPAAALANYT | 2.15
43 | YVRDRADLNKDKPVIPAAALAKYT | 2.18
44 | YVRDRADLNKDKPVIPAAALAQYT | 2.12
45 | YVRDRADLNKDKPVIPAAALAIYT | 2.29
46 | YVRDRADLNKDKPVIPAAALALYT | 1.85
47 | YVRDRADLNKDKPVIPAAALARYT | 1.69
48 | YVRDRADLNKDKPVIPAAALATYT | 2.05
49 | YVRDRADLNKDKPVIPAAALAMYT | 1.63
50 | YVRDRADLNKDKPVIPAAALAWYT | 2.55
51 | YVRDRADLNKDKPVIPAAALAHYT | 1.63

Variants of: B2
Experiment: as above
Settings: c terminus: a fixed tail appended

Row | Variant | protein stability index
52 | MAGCTGSLCCCCRWCCCCGERETR | 1.44
53 | MAGCQGSLCCCCRWCCCCGERETR | 2.33
54 | MAGCGGSLCCCCRWCCCCGERETR | 1.49
55 | MAGCFGSLCCCCRWCCCCGERETR | 2.41
56 | MAGCWGSLCCCCRWCCCCGERETR | 1.98
57 | MAGCKGSLCCCCRWCCCCGERETR | 3.21
58 | MAGCDGSLCCCCRWCCCCGERETR | 1.38
59 | MAGCCGSLCCCCRWCCCCGERETR | 2.33
60 | MAGCYGSLCCCCRWCCCCGERETR | 3.45
61 | MAGCPGSLCCCCRWCCCCGERETR | 1.29
62 | MAGCEGSLCCCCRWCCCCGERETR | 1.34
63 | MAGCMGSLCCCCRWCCCCGERETR | 1.38
64 | MAGCAGSLCCCCRWCCCCGERETR | 1.98
65 | MAGCIGSLCCCCRWCCCCGERETR | 1.92
66 | MAGCRGSECCCCRWCCCCGERETR | 1.83
67 | MAGCRGSRCCCCRWCCCCGERETR | 2.16
68 | MAGCRGSFCCCCRWCCCCGERETR | 1.1
69 | MAGCRGSNCCCCRWCCCCGERETR | 1.42
70 | MAGCRGSICCCCRWCCCCGERETR | 1.32
71 | MAGCRGSDCCCCRWCCCCGERETR | 1.17
72 | MAGCRGSGCCCCRWCCCCGERETR | 2.1
73 | MAGCRGSSCCCCRWCCCCGERETR | 1.22

Row | Variant | protein stability index
74 | MAGCRGSQCCCCRWCCCCGERETR | 1.29
75 | MAGCRGSTCCCCRWCCCCGERETR | 1.42
76 | MAGCRGSVCCCCRWCCCCGERETR | 2.21
77 | MAGCRGSKCCCCRWCCCCGERETR | 1.53
78 | MAGCRGSCCCCCRWCCCCGERETR | 1.54
79 | MAGCRMSLCCCCRWCCCCGERETR | 1.41
80 | MAGCRHSLCCCCRWCCCCGERETR | 1.86
81 | MAGCRWSLCCCCRWCCCCGERETR | 2.54
82 | MAGCRPSLCCCCRWCCCCGERETR | 1.58
83 | MAGCRESLCCCCRWCCCCGERETR | 2.38
84 | MAGCRDSLCCCCRWCCCCGERETR | 2.36
85 | MAGCRNSLCCCCRWCCCCGERETR | 1.72
86 | MAGCRSSLCCCCRWCCCCGERETR | 1.82
87 | MAGCRVSLCCCCRWCCCCGERETR | 1.37
88 | MAGCRASLCCCCRWCCCCGERETR | 1.83
89 | MAGCRLSLCCCCRWCCCCGERETR | 1.32
90 | MAGCRYSLCCCCRWCCCCGERETR | 1.89
91 | MAGCRQSLCCCCRWCCCCGERETR | 2.28
92 | MAGCRRSLCCCCRWCCCCGERETR | 2.52
93 | MAGCRFSLCCCCRWCCCCGERETR | 1.92
94 | MAGCRISLCCCCRWCCCCGERETR | 2.06
